We go through 91 sequences from the supplement of paper PMC9112550, “Optimization of the antimicrobial peptide Bac7 by deep mutational scanning” (BMC Biology, 2022).
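Further: peptides expressed intracellularly from a pBAD plasmid library in pooled LB shake-flask culture, induced with 0.3% L-arabinose, DNA abundance read by NGS, three biological replicates, DESeq2 with apeglm shrinkage.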

The subject of the series is Escherichia coli TOP10. The series is described as follows: shrunken log2 fold change of peptide-encoding DNA abundance (4.5 h post-induction vs induction); higher = less antimicrobial activity (less host growth inhibition). Conditions: time post-induction: 4.5 h; library: site-saturation at positions 5, 18, 19, 20.
In the case of RRIRARPPRLPRPRPRPRYDPRP, the “shrunken log2 fold change” value is 0.166. The same measure for RRIRGRPPRLPRPRPRPVNFPRP: 0.44. For RRIRRRPPRLPRPRPRPHSVPRP, the “shrunken log2 fold change” value is 0.0319. In the case of RRIRFRPPRLPRPRPRPDTDPRP, the “shrunken log2 fold change” value came to 0.479. The same measure for RRIRWRPPRLPRPRPRPCVFPRP: 0.309; for RRIRSRPPRLPRPRPRPEPSPRP: 0.859. For RRIRLRPPRLPRPRPRPTDFPRP the value was -0.0399. For RRIRVRPPRLPRPRPRPIMMPRP the value was -0.0138. As to RRIRGRPPRLPRPRPRPGCRPRP, the “shrunken log2 fold change” value amounted to 1.16. With RRIRARPPRLPRPRPRPAMMPRP, the “shrunken log2 fold change” value turned out to be 0.511. The same measure for RRIRGRPPRLPRPRPRPMRNPRP: 1.09; for RRIRTRPPRLPRPRPRPGVVPRP: 0.0177; for RRIRQRPPRLPRPRPRPKLWPRP: -0.0821. The same measure for RRIRFRPPRLPRPRPRPWRFPRP: 0.22.

Turning to RRIRNRPPRLPRPRPRPDWHPRP, the “shrunken log2 fold change” value was -0.394. As for RRIRVRPPRLPRPRPRPYCTPRP, the “shrunken log2 fold change” value was -0.284.

Regarding RRIRARPPRLPRPRPRPVHHPRP, the “shrunken log2 fold change” value is -0.0524. The same measure for RRIRQRPPRLPRPRPRPLAEPRP: -0.0181; for RRIRQRPPRLPRPRPRPKDCPRP: -0.00225. For RRIRSRPPRLPRPRPRPRLLPRP the value was 0.229.

In the case of RRIRKRPPRLPRPRPRPVSQPRP, the “shrunken log2 fold change” value came to 0.147. The same measure for RRIRYRPPRLPRPRPRPCYHPRP: -0.289; for RRIRGRPPRLPRPRPRPFEGPRP: 0.0595.

Take RRIRARPPRLPRPRPRPIPWPRP: the “shrunken log2 fold change” value is 0.313. Take RRIRVRPPRLPRPRPRPTNPPRP: the “shrunken log2 fold change” value is -0.296. For RRIRGRPPRLPRPRPRPVSVPRP, the “shrunken log2 fold change” value was found to be 0.624. On to RRIRYRPPRLPRPRPRPDSKPRP, for which the “shrunken log2 fold change” value was -0.352.

As for RRIRGRPPRLPRPRPRPSFPPRP, the “shrunken log2 fold change” value is -0.0674. Regarding RRIRLRPPRLPRPRPRPDVQPRP, the “shrunken log2 fold change” value is 0.0463.

Regarding RRIRGRPPRLPRPRPRPMSSPRP, the “shrunken log2 fold change” value is -0.154.

Regarding RRIRSRPPRLPRPRPRPPIVPRP, the “shrunken log2 fold change” value is -0.0118. For RRIRKRPPRLPRPRPRPKKHPRP, the “shrunken log2 fold change” value amounted to 0.276. As to RRIRNRPPRLPRPRPRPLGNPRP, the “shrunken log2 fold change” value is -0.248. For RRIRNRPPRLPRPRPRPQWIPRP the value was -0.446; for RRIRTRPPRLPRPRPRPPMCPRP, 0.0176; for RRIRQRPPRLPRPRPRPIRNPRP, -0.0231.

On to RRIRVRPPRLPRPRPRPLYNPRP, for which the “shrunken log2 fold change” value is -0.56. For RRIRGRPPRLPRPRPRPNEMPRP, the “shrunken log2 fold change” value amounted to 0.703. For RRIRDRPPRLPRPRPRPYDKPRP the value was -0.149; for RRIRCRPPRLPRPRPRPLAKPRP, 1.69. For RRIRWRPPRLPRPRPRPDQMPRP the value was 0.128; for RRIRVRPPRLPRPRPRPNWYPRP, -0.523; for RRIRWRPPRLPRPRPRPKDWPRP, 0.246.

In the case of RRIRPRPPRLPRPRPRPNFEPRP, the “shrunken log2 fold change” value was determined as 0.275. For RRIRYRPPRLPRPRPRPIVNPRP, the “shrunken log2 fold change” value was -0.558.

On to RRIRERPPRLPRPRPRPDLRPRP, for which the “shrunken log2 fold change” value was -0.076. The same measure for RRIRMRPPRLPRPRPRPARLPRP: 0.201; for RRIRTRPPRLPRPRPRPLRKPRP: 0.258; for RRIRRRPPRLPRPRPRPPKRPRP: 0.686. Consider RRIRKRPPRLPRPRPRPRNDPRP, for which the “shrunken log2 fold change” value came to 0.352. The same measure for RRIRTRPPRLPRPRPRPKWSPRP: -0.227; for RRIRKRPPRLPRPRPRPSQRPRP: 0.231. In the case of RRIRFRPPRLPRPRPRPVYSPRP, the “shrunken log2 fold change” value is -0.12. With RRIRWRPPRLPRPRPRPRGIPRP, the “shrunken log2 fold change” value was 0.234. With RRIRPRPPRLPRPRPRPVEFPRP, the “shrunken log2 fold change” value amounted to 0.068. For RRIRIRPPRLPRPRPRPMHVPRP the value was -0.00468; for RRIRPRPPRLPRPRPRPYEMPRP, -0.281. Consider RRIRDRPPRLPRPRPRPRMVPRP, for which the “shrunken log2 fold change” value was -0.177. The same measure for RRIRCRPPRLPRPRPRPNAHPRP: -0.221; for RRIRARPPRLPRPRPRPNYYPRP: -0.414; for RRIRFRPPRLPRPRPRPQRCPRP: 0.08. On to RRIRSRPPRLPRPRPRPTKVPRP, for which the “shrunken log2 fold change” value is -0.213. In the case of RRIRQRPPRLPRPRPRPRDFPRP, the “shrunken log2 fold change” value was determined as 0.984. The same measure for RRIRNRPPRLPRPRPRPYVEPRP: -0.00677; for RRIRYRPPRLPRPRPRPCAPPRP: -0.329. The same measure for RRIRVRPPRLPRPRPRPLVNPRP: -0.244; for RRIRSRPPRLPRPRPRPKKQPRP: 0.0417.

Take RRIRFRPPRLPRPRPRPQGLPRP: the “shrunken log2 fold change” value was -0.462. On to RRIRQRPPRLPRPRPRPCLLPRP, for which the “shrunken log2 fold change” value is -2.33.

For the sequence RRIRYRPPRLPRPRPRPENTPRP, the “shrunken log2 fold change” value was -0.879.

As to RRIRMRPPRLPRPRPRPEDPPRP, the “shrunken log2 fold change” value came to 1.02. For RRIRARPPRLPRPRPRPIWFPRP the value was 0.225; for RRIRFRPPRLPRPRPRPLSLPRP, -0.0575; for RRIRHRPPRLPRPRPRPNHQPRP, -1.24. For RRIRERPPRLPRPRPRPNMLPRP the value was -0.753. For RRIRGRPPRLPRPRPRPGEVPRP the value was 1.2; for RRIRCRPPRLPRPRPRPLVGPRP, 3.69; for RRIRLRPPRLPRPRPRPDITPRP, -0.00678. RRIRYRPPRLPRPRPRPDIQPRP: the “shrunken log2 fold change” value is -0.349.

With RRIRSRPPRLPRPRPRPSLFPRP, the “shrunken log2 fold change” value is 0.0853. For RRIRHRPPRLPRPRPRPLNTPRP the value was -0.351. The same measure for RRIRYRPPRLPRPRPRPDYNPRP: -0.475; for RRIRVRPPRLPRPRPRPNIEPRP: -0.616. For the sequence RRIRPRPPRLPRPRPRPSTTPRP, the “shrunken log2 fold change” value was -0.326. Take RRIRERPPRLPRPRPRPSTPPRP: the “shrunken log2 fold change” value is -0.28.

Consider RRIRTRPPRLPRPRPRPVLAPRP, for which the “shrunken log2 fold change” value was 0.479. Take RRIRFRPPRLPRPRPRPGIMPRP: the “shrunken log2 fold change” value is -0.124.

In the case of RRIRLRPPRLPRPRPRPPPEPRP, the “shrunken log2 fold change” value came to 1.35. For the sequence RRIRTRPPRLPRPRPRPNMCPRP, the “shrunken log2 fold change” value is 0.00985. In the case of RRIRVRPPRLPRPRPRPGMCPRP, the “shrunken log2 fold change” value came out at 0.00908.

For RRIRQRPPRLPRPRPRPYIPPRP, the “shrunken log2 fold change” value is -0.619.
